Reference: US20130337050A1 (IMMUNOFUTURE, published 2013)

B1: GST-mTfR1 (GST-fused recombinant protein of the partial sequence 321-329 of mouse transferrin receptor 1) (other, not shown: a dimerising Fc or GST)
chain: TQFPPSQSS

Legend:
Assay in all cases: amylose resin pull-down, western blotting with anti-GST antibody
[1] = biological target: MBP-VP1BC loop (fused recombinant protein of VP1BC loop and MBP) (poliovirus)
[2] = biological target: MBP-VP1 GH strand I (fused recombinant protein of VP1 GH strand I and MBP) (poliovirus)
[3] = biological target: B1

| Binder | binding result [1] | binding result [2] | binding result [3] |
| --- | --- | --- | --- |
| B1 | binds | binds | – |
| ALGDSLYGAASLN (other) [MBP-VP1 GH loop (fused recombinant protein of VP1 GH loop and MBP)] | – | – | binds |
| SKVPLKDQSAALGDSLYGAASLNDFGILAVRVV (other) [MBP-VP1 GH strand II (fused recombinant protein of VP1 GH strand II and MBP)] | – | – | binds |
| STKDLTTY (other) [MBP-VP1C terminal region (fused recombinant protein of VP1C terminal region and MBP)] | – | – | binds |
